From patent US7445894B2, “Compositions and methods for detection and isolation of phosphorylated molecules” (priority 2002, dated 2008)
Each block holds one substance with its values, some of them ahead of it.

What was measured:
[1] = test system: T1, Abl peptide (New England Biolabs), substrate for Abl tyrosine kinase
T1 sequence: EAIYAAPFAKKK

[2] = test system: T2, Glycogen synthase 1-10 peptide (Calbiochem)
T2 sequence: PLSRTLSVSS

[3] = test system: T3, Kemptide (non-phosphorylated)
T3 sequence: LRRASLG

[4] = test system: T4, crosstide, biotinylated synthetic peptide
T4 sequence: GRPRTSSFAEG

[5] = test system: Bovine muscle myosin light chain
[6] = test system: phosphopeptides; assay: Quantitative binding of phosphopeptides using streptavidin ferrofluid particles; settings: 550 pmoles phosphopeptides, particles saturated with Compound 9, charged with GaCl3, eluted with 0.15 M ammonium hydroxide
Method: Quantitative binding of phosphopeptides was accomplished using labeled ferrofluid particles. Streptavidin ferrofluid particles were labeled with Compound 9 until saturated. After washing away unbound dye, the particles were charged with 0.1 M GaCl3, then washed with 0.1 M NaOAc, pH 4.0. 100 μL of magnetic particles (4 mg/mL) was added with standard peptide mix containing 550 picomoles of phosphopeptides. The mixture was incubated for 20 min while gently vortexing. The particles were isolated using a magnetic separator and the resulting supernatant was removed. The beads were washed 2× with 100 μL 100 mM NaOAc, pH 4.0 and the phosphopeptides were eluted with 0.15 M ammonium hydroxide. Greater than 95% of the phosphopeptides (550 pmoles) were isolated.

[7] = biological target: pp60 c-src (pY), phosphorylated form of the pp60 c-src peptide; assay: peptide microarray on HydroGel slides; primary antibody at 1.5 µg/mL, then Alexa Fluor 647 goat anti-mouse; 632.8 nm excitation / 670 nm emission
[8] = biological target: pp60 c-src (pY), phosphorylated form of the pp60 c-src peptide; assay: peptide microarray on HydroGel slides; primary antibody, then Zenon One Alexa Fluor 647 mouse IgG labeling reagent; 632.8 nm excitation / 670 nm emission

Chain of Abl Protein Tyrosine Kinase (NEB) (P00520 whole entry): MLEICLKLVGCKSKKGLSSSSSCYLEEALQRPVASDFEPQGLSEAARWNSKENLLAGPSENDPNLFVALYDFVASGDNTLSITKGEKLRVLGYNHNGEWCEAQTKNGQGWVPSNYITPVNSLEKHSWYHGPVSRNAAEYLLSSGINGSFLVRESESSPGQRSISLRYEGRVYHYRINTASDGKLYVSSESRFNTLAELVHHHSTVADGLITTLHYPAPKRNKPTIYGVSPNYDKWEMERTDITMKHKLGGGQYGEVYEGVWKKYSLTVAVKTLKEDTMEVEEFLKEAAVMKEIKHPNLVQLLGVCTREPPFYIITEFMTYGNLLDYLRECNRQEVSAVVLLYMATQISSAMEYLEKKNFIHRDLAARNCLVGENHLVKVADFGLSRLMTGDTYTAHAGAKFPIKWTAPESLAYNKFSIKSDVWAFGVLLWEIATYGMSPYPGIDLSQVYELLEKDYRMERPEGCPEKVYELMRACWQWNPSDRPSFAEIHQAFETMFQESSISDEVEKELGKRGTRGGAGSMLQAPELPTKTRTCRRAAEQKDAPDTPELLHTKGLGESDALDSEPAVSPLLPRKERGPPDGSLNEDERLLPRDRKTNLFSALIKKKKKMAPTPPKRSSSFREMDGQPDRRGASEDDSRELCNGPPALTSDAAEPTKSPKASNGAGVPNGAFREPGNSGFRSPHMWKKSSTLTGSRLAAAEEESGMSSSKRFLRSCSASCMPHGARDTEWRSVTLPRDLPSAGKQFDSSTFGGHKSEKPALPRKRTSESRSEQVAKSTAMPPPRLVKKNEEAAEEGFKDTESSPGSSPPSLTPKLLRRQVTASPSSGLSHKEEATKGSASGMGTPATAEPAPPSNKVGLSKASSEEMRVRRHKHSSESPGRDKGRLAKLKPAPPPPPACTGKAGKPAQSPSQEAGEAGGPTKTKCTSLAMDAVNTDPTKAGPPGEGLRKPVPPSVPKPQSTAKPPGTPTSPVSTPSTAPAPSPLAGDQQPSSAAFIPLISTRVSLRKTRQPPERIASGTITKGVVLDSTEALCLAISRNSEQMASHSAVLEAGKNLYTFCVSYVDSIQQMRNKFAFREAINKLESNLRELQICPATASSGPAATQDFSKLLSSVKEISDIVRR
Chain of Akt/Protein Kinase B (P31749 whole entry): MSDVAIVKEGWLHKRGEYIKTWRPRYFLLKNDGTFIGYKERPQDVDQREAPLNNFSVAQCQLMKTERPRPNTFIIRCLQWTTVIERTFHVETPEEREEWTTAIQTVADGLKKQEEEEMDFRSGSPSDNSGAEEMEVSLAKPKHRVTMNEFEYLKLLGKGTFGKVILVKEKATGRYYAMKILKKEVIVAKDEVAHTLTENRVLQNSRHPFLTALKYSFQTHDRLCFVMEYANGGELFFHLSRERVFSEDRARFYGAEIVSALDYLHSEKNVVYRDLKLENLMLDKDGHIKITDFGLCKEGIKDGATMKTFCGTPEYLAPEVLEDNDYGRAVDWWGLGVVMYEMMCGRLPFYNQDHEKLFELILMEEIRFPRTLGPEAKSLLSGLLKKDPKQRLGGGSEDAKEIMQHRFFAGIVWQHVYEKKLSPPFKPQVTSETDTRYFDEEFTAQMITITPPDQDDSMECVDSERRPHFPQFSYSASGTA

Substance: Abl Protein Tyrosine Kinase (NEB)
- fluorescent labeling (Compound 2/Ga3+) of arrayed peptide after kinase reaction [1]: Abl peptide substrate is the only fluorescently labeled peptide on the array
- fluorescent labeling (Compound 2/Ga3+) of arrayed peptide after kinase reaction with ATP-γ-S or ATP [1]: Abl peptide substrate is the only fluorescently labeled peptide on the array
- sensitivity of detection after kinase reaction [1]: Sensitivity of detection after kinase reaction is at least 0.18 ng or 0.14 pmol
- sensitivity of detection after kinase reaction with ATP (control) [1]: 0.325 pg of Abl peptide, in the control reaction using ATP, was labeled and detected
- sensitivity of detection after kinase reaction with ATP-γ-S [1]: Sensitivity of detection after kinase reaction was 2.6 pg of the peptide labeled using ATP-γ-S
- fluorescent labeling (Compound 2/Ga3+) of arrayed peptide after kinase reaction; Glycogen Synthase 1-10 not labeled [2]: Abl peptide substrate is the only fluorescently labeled peptide on the array
- fluorescent labeling (Compound 2/Ga3+) of arrayed peptide after kinase reaction; Kemptide not labeled [3]: Abl peptide substrate is the only fluorescently labeled peptide on the array

Substance: Akt/Protein Kinase B
- fluorescent signal (Compound 2/Ga3+) of peptide charged beads, exposed to kinase against not exposed [4]: The fluorescent signal of the peptide charged beads exposed to Akt/PKB kinase was found to be 2.2-fold higher, with no overlap in standard deviation, than the control peptide charged beads not exposed to enzyme

Substance: Calcium-Calmodulin-Dependent protein Kinase II (New England BioLabs)
- fluorescent labeling (Compound 2/Ga3+) of arrayed peptide after kinase reaction; Abl peptide not labeled [1]: glycogen synthase peptide is the only fluorescently labeled peptide on the array
- phosphoprotein stain signal (Compound 2/Ga3+) of the gel band, kinase reaction against no-enzyme control [5]: the signal from the band in the lane corresponding to the reaction containing the enzyme 3.4-fold greater than the no-enzyme control
- fluorescent labeling (Compound 2/Ga3+) of arrayed peptide after kinase reaction [2]: glycogen synthase peptide is the only fluorescently labeled peptide on the array
- sensitivity of detection after kinase reaction [2]: Sensitivity of detection after kinase reaction is at least 0.375 ng or 0.35 pmol

- phosphopeptides isolated [6]: Greater than 95%
Substance: 4-(N-(5″-biotinylaminopentyl)aminocarbonyl)-rhod tetrapotassium salt [Compound 9]

- sensitivity of detection [7]: 5.2 pg
- sensitivity of detection [8]: 0.65 pg
Substance: phosphotyrosine monoclonal antibody P-Tyr-100 (Cell Signaling Tech.)
